From US20040018971A1 (published 2004)

B1: HER2/neu peptide, position 1076, 10 amino acids (peptide)
peptide: APSEGAGSDV
B2: HER2/neu peptide, position 315, 8 amino acids (peptide)
peptide: CPLHNQEV
B3: HER2/neu peptide, position 246, 11 amino acids (peptide)
peptide: GPKHSDCLACL
B4: HER2/neu peptide, position 982, 8 amino acids (peptide)
peptide: DPQRFVVI
B5: HER2/neu peptide, position 1204, 9 amino acids (peptide)
peptide: APQPHPPPA
B6: HER2/neu peptide, position 605, 10 amino acids (peptide)
peptide: KPDLSYMPIW
B7: HER2/neu peptide, position 1129, 11 amino acids (peptide)
peptide: APLTCSPQPEY
B8: HER2/neu peptide, position 390, 11 amino acids (peptide)
peptide: APLQPEQLQVF
B9: HER2/neu peptide, position 1157, 9 amino acids (peptide)
peptide: LPAARPAGA
B10: HER2/neu peptide, position 35, 11 amino acids (peptide)
peptide: LPASPETHLDM
B11: HER2/neu peptide, position 564, 11 amino acids (peptide)
peptide: HPECQPQNGSV
B12: HER2/neu peptide, position 578, 8 amino acids (peptide)
peptide: GPEADQCV
B13: HER2/neu peptide, position 522, 8 amino acids (peptide)
peptide: GPGPTQCV
B14: HER2/neu peptide, position 1155, 11 amino acids (peptide)
peptide: GPLPAARPAGA
B15: HER2/neu peptide, position 299, 10 amino acids (peptide)
peptide: CPYNYLSTDV
B16: HER2/neu peptide, position 698, 9 amino acids (peptide)
peptide: EPLTPSGAM
B17: HER2/neu peptide, position 524, 11 amino acids (peptide)
peptide: GPTQCVNCSQF
B18: HER2/neu peptide, position 578, 11 amino acids (peptide)
peptide: GPEADQCVACA
B19: HER2/neu peptide, position 995, 10 amino acids (peptide)
peptide: GPASPLDSTF
B20: HER2/neu peptide, position 1208, 9 amino acids (peptide)
peptide: HPPPAFSPA
B21: HER2/neu peptide, position 642, 10 amino acids (peptide)
peptide: CPAEQRASPL
notes: also called Her2/neu.642
B22: HER2/neu peptide, position 600, 9 amino acids (peptide)
peptide: CPSGVKPDL
B23: HER2/neu peptide, position 600, 11 amino acids (peptide)
peptide: CPSGVKPDLSY
notes: also called Her2/neu.600
B24: HER2/neu peptide, position 1208, 10 amino acids (peptide)
peptide: HPPPAFSPAF
B25: HER2/neu peptide, position 1157, 11 amino acids (peptide)
peptide: LPAARPAGATL
B26: HER2/neu peptide, position 419, 10 amino acids (peptide)
peptide: LPDLSVFQNL
B27: HER2/neu peptide, position 926, 9 amino acids (peptide)
peptide: IPAREIPDL
B28: HER2/neu peptide, position 121, 9 amino acids (peptide)
peptide: DPLNNTTPV
B29: HER2/neu peptide, position 1105, 8 amino acids (peptide)
peptide: DPSPLQRY
B30: HER2/neu peptide, position 246, 8 amino acids (peptide)
peptide: GPKHSDCL
B31: HER2/neu peptide, position 384, 9 amino acids (peptide)
peptide: DPASNTAPL
B32: HER2/neu peptide, position 1034, 10 amino acids (peptide)
peptide: DPAPGAGGMV
B33: HER2/neu peptide, position 336, 10 amino acids (peptide)
peptide: KPCARVCYGL
notes: also called Her2/neu.336
B34: HER2/neu peptide, position 740, 11 amino acids (peptide)
peptide: IPDGENVKIPV
B35: HER2/neu peptide, position 698, 8 amino acids (peptide)
peptide: EPLTPSGA
B36: HER2/neu peptide, position 578, 9 amino acids (peptide)
peptide: GPEADQCVA
B37: HER2/neu peptide, position 1204, 10 amino acids (peptide)
peptide: APQPHPPPAF
B38: HER2/neu peptide, position 315, 10 amino acids (peptide)
peptide: CPLHNQEVTA
B39: HER2/neu peptide, position 931, 11 amino acids (peptide)
peptide: IPDLLEKGERL
B40: HER2/neu peptide, position 1032, 11 amino acids (peptide)
peptide: CPDPAPGAGGM
B41: HER2/neu peptide, position 1076, 11 amino acids (peptide)
peptide: APSEGAGSDVF
B42: HER2/neu peptide, position 740, 9 amino acids (peptide)
peptide: IPDGENVKI
B43: HER2/neu peptide, position 605, 9 amino acids (peptide)
peptide: KPDLSYMPI
notes: also called Her2/neu.605
B44: HER2/neu peptide, position 1034, 9 amino acids (peptide)
peptide: DPAPGAGGM
B45: HER2/neu peptide, position 995, 11 amino acids (peptide)
peptide: GPASPLDSTFY
B46: HER2/neu peptide, position 926, 10 amino acids (peptide)
peptide: IPAREIPDLL
B47: HER2/neu peptide, position 1155, 9 amino acids (peptide)
peptide: GPLPAARPA
B48: HER2/neu peptide, position 748, 8 amino acids (peptide)
peptide: IPVAIKVL
B49: HER2/neu peptide, position 35, 9 amino acids (peptide)
peptide: LPASPETHL
B50: HER2/neu peptide, position 336, 8 amino acids (peptide)
peptide: KPCARVCY
B51: HER2/neu peptide, position 921, 11 amino acids (peptide)
peptide: KPYDGIPAREI
B52: HER2/neu peptide, position 377, 10 amino acids (peptide)
peptide: LPESFDGDPA
B53: HER2/neu peptide, position 1032, 8 amino acids (peptide)
peptide: CPDPAPGA
B54: HER2/neu peptide, position 626, 10 amino acids (peptide)
peptide: CPINCTHSCV

molecular target: HLA-B*0702 (human); assay: competition with 125I-labelled probe peptide for purified HLA, gel filtration

Binder | relative binding ratio
B1 | 0.0002 ratio (IC50 of standard / IC50 of test peptide)
B2 | < 0.0006 ratio (IC50 of standard / IC50 of test peptide)
B3 | 0.0006 ratio (IC50 of standard / IC50 of test peptide)
B4 | < 0.0006 ratio (IC50 of standard / IC50 of test peptide)
B5 | 0.0056 ratio (IC50 of standard / IC50 of test peptide)
B6 | 0.0001 ratio (IC50 of standard / IC50 of test peptide)
B7 | < 0.0002 ratio (IC50 of standard / IC50 of test peptide)
B8 | 0.0011 ratio (IC50 of standard / IC50 of test peptide)
B9 | 0.0027 ratio (IC50 of standard / IC50 of test peptide)
B10 | < 0.0002 ratio (IC50 of standard / IC50 of test peptide)
B11 | < 0.0002 ratio (IC50 of standard / IC50 of test peptide)
B12 | < 0.0006 ratio (IC50 of standard / IC50 of test peptide)
B13 | < 0.0006 ratio (IC50 of standard / IC50 of test peptide)
B14 | 0.016 ratio (IC50 of standard / IC50 of test peptide)
B15 | 0.0016 ratio (IC50 of standard / IC50 of test peptide)
B16 | 0.011 ratio (IC50 of standard / IC50 of test peptide)
B17 | 0.0005 ratio (IC50 of standard / IC50 of test peptide)
B18 | < 0.0003 ratio (IC50 of standard / IC50 of test peptide)
B19 | 0.051 ratio (IC50 of standard / IC50 of test peptide)
B20 | 0.0093 ratio (IC50 of standard / IC50 of test peptide)
B21 | 0.15 ratio (IC50 of standard / IC50 of test peptide)
B22 | 0.014 ratio (IC50 of standard / IC50 of test peptide)
B23 | 0.03 ratio (IC50 of standard / IC50 of test peptide)
B24 | 0.0018 ratio (IC50 of standard / IC50 of test peptide)
B25 | 0.014 ratio (IC50 of standard / IC50 of test peptide)
B26 | 0.0003 ratio (IC50 of standard / IC50 of test peptide)
B27 | 0.0006 ratio (IC50 of standard / IC50 of test peptide)

Binder | relative binding ratio
B28 | 0.0002 ratio (IC50 of standard / IC50 of test peptide)
B29 | < 0.0006 ratio (IC50 of standard / IC50 of test peptide)
B30 | 0.0092 ratio (IC50 of standard / IC50 of test peptide)
B31 | 0.0004 ratio (IC50 of standard / IC50 of test peptide)
B32 | 0.0002 ratio (IC50 of standard / IC50 of test peptide)
B33 | 0.037 ratio (IC50 of standard / IC50 of test peptide)
B34 | 0.0023 ratio (IC50 of standard / IC50 of test peptide)
B35 | < 0.0002 ratio (IC50 of standard / IC50 of test peptide)
B36 | 0.0001 ratio (IC50 of standard / IC50 of test peptide)
B37 | 0.053 ratio (IC50 of standard / IC50 of test peptide)
B38 | 0.0001 ratio (IC50 of standard / IC50 of test peptide)
B39 | < 0.0002 ratio (IC50 of standard / IC50 of test peptide)
B40 | < 0.0002 ratio (IC50 of standard / IC50 of test peptide)
B41 | 0.0006 ratio (IC50 of standard / IC50 of test peptide)
B42 | 0.0001 ratio (IC50 of standard / IC50 of test peptide)
B43 | 0.072 ratio (IC50 of standard / IC50 of test peptide)
B44 | 0.0001 ratio (IC50 of standard / IC50 of test peptide)
B45 | 0.0036 ratio (IC50 of standard / IC50 of test peptide)
B46 | 0.0004 ratio (IC50 of standard / IC50 of test peptide)
B47 | 0.09 ratio (IC50 of standard / IC50 of test peptide)
B48 | 0.012 ratio (IC50 of standard / IC50 of test peptide)
B49 | 0.0002 ratio (IC50 of standard / IC50 of test peptide)
B50 | < 0.0006 ratio (IC50 of standard / IC50 of test peptide)
B51 | 0.043 ratio (IC50 of standard / IC50 of test peptide)
B52 | 0.0001 ratio (IC50 of standard / IC50 of test peptide)
B53 | < 0.0002 ratio (IC50 of standard / IC50 of test peptide)
B54 | 0.0002 ratio (IC50 of standard / IC50 of test peptide)
